{"source": "patent US20190275087A1", "about": "“EXPANSION AND DIFFERENTIATION OF STEM CELLS” (Allergan Pharmaceuticals International Limited, priority 2018, published 2019)", "molecules": {"B1": {"name": "recombinant human tropoelastin (Elastagen) (ligand, UniProt P15502-2 27-724, looked up)", "chain": "GGVPGAIPGGVPGGVFYPGAGLGALGGGALGPGGKPLKPVPGGLAGAGLGAGLGAFPAVTFPGALVPGGVADAAAAYKAAKAGAGLGGVPGVGGLGVSAGAVVPQPGAGVKPGKVPGVGLPGVYPGGVLPGARFPGVGVLPGVPTGAGVKPKAPGVGGAFAGIPGVGPFGGPQPGVPLGYPIKAPKLPGGYGLPYTTGKLPYGYGPGGVAGAAGKAGYPTGTGVGPQAAAAAAAKAAAKFGAGAAGVLPGVGGAGVPGVPGAIPGIGGIAGVGTPAAAAAAAAAAKAAKYGAAAGLVPGGPGFGPGVVGVPGAGVPGVGVPGAGIPVVPGAGIPGAAVPGVVSPEAAAKAAAKAAKYGARPGVGVGGIPTYGVGAGGFPGFGVGVGGIPGVAGVPGVGGVPGVGGVPGVGISPEAQAAAAAKAAKYGVGTPAAAAAKAAAKAAQFGLVPGVGVAPGVGVAPGVGVAPGVGLAPGVGVAPGVGVAPGVGVAPGIGPGGVAAAAKSAAKVAAKAQLRAAAGLGAGIPGLGVGVGVPGLGVGAGVPGLGVGAGVPGFGAVPGALAAAKAAKYGAAVPGVLGGLGALGGVGIPGGVVGAGPAAAAAAAKAAAKAAQFGLVGAAGLGGLGVGGLGVPGVGGLGGIPPAAAAKAAKYGAAGLGGVLGGAGQFPLGGVAARPGFGLSPIFPGGACLGKACGRKRK"}}, "key": {"MSCs [1]": {"test_system": "MSCs", "assay": "Tri-lineage differentiation of MSCs expanded with tropoelastin", "assay_type": "cell-based, Human", "settings": "substrate-bound or soluble, replacing growth factors, normal or reduced serum media", "method": "(§1) MSCs were grown in various media formulations and on bare or protein-coated tissue culture wells for 7 days. The expanded cells were harvested, re-seeded on TCP, and differentiated into the adipogenic, osteogenic and chondrogenic lineages using the hMSC Adipogenic BulletKit®, hMSC Osteogenic BulletKit®, and hMSC Chondrogenic BulletKit® (Lonza), respectively, following the manufacturer's instructions.\n(§2) To confirm adipogenesis, cells that had been induced for 25 days were washed with PBS, fixed with 10% (v/v) formalin for 30 min, then washed with water. Cells were incubated with 60% (v/v) isopropanol for 5 min and stained for intracellular lipid droplets with 1.8 mg/mL Oil Red O in isopropanol for 20 min. Excess stain was removed with 5 washes of water.\nTo confirm osteogenesis, cells that had been induced for 14 days were fixed and stained for mineralized calcium deposits with Alizarin Red S, as previously described. Cells from the adipogenic and osteogenic experiments were imaged with a Zeiss Axio Vert.A1 microscope using an AxioCam 105 colour camera.\nTo confirm chondrogenesis, cell pellets that had been induced for 14 days were washed with PBS, embedded in 1.5% (w/v) agar containing 0.85% (w/v) NaCl, and fixed with 10% (v/v) formalin overnight. […]"}, "[2]": {"test_system": "Human bone marrow-derived MSCs", "assay": "MSC proliferation (crystal violet cell abundance)", "assay_type": "cell-based", "method": "Human bone marrow-derived MSCs obtained from American Type Culture Collection (ATCC) were cultured in normal media, which consists of Alpha-Minimum Essential Medium (α-MEM) (Lonza) with 10% (v/v) FBS (Life Technologies) and 2.4 mM L-glutamine (Lonza), at 37° C. in a humidified normoxic incubator up to a maximum of 10 population doublings. Where indicated, the normal media was supplemented with 15 ng/mL IGF-1 (Life Technologies) and/or […] bFGF (Life Technologies), equivalent to the growth factor concentrations in the ATCC-recommended media. Cells were passaged once they reach 70-80% confluence.\nWhere indicated, tissue culture plastic wells were coated with 20 μg/mL recombinant human tropoelastin (Elastagen) or 2 μg/mL fibronectin (Sigma-Aldrich®) in PBS (10 mM phosphate, 150 mM NaCl, pH 7.4) at 4° C. overnight. The protein solution was removed, and wells were washed three times with PBS to remove unbound protein prior to cell seeding.\n[…] To prevent protein adhesion on the tissue culture substrate, wells were pre-incubated with normal media for 5 hours to enable surface blocking by serum proteins prior to cell seeding in supplemented media.\nSub-confluent flasks of MSCs were treated with 0.05% (v/v) trypsin-EDTA (Sigma-Aldrich®) at 37° C. for 5 min to lift off adherent cells from the culture vessel. Trypsin was neutralized with two volumes of serum-containing growth media. Cells were centrifuged at 270 g for 5 min and resuspended in the required media. Cells were seeded at a density of 5000 cells/cm^2 on bare or protein-coated tissue culture plastic wells, in normal or supplemented media. Media was changed every 2 days. After specific time points, cells were fixed with 3% (v/v) formaldehyde at room temperature for 20 min, washed with PBS, then stained with 0.1% (w/v) crystal violet in 0.2 M MES buffer for 1 hour. Excess stain was washed off four times with reverse osmosis water. The retained stain was solubilized with 10% (v/v) acetic acid and sample absorbance values indicative of cell abundance were read at 570 nm. Sample absorbance values were subtracted by baseline values (corresponding to cell numbers in serum-free media, or cell numbers on day 1 post-seeding) and expressed as a fraction of the highest absorbance among all samples on day 7 post-seeding."}, "MSCs [3]": {"test_system": "MSCs", "assay": "Flow cytometry of MSC surface marker expression", "assay_type": "cell-based, Human", "method": "MSCs cultured for 5 or 7 days in various media formulations and on bare or protein-coated tissue culture wells were trypsinised and pelleted. The cell pellets were washed with 0.22 μm filtered FACS buffer (5% v/v FBS in PBS) and re-centrifuged at 270 g for 5 min. The cells were resuspended in FACS buffer to a concentration of 100,000 cells in 100 μL total volume, and probed for MSC marker expression using the Human Mesenchymal Stem Cell Verification Flow Kit (R&D Systems®). Isotype and unstained control samples were prepared using MSCs cultured in standard growth media on tissue culture plastic. Cells were analyzed using a BD™ Biosciences LSR II Flow Cytometer System. Singlet cells were determined by their forward scatter-to-side scatter and scatter height-to-width ratios, while viable cells were identified by exclusion of 1:20 propidium iodide. Only singlet, viable cells were analyzed for marker expression."}, "MSCs [4]": {"test_system": "MSCs", "assay": "MSC adipogenic differentiation (intracellular lipid, Oil Red O)", "assay_type": "cell-based, Human", "method": "as §1, §2"}, "[5]": {"settings": "tropoelastin substrate, normal media"}, "[6]": {"settings": "tropoelastin substrate, unsupplemented 7% FBS media, 7 days"}, "[7]": {"settings": "tropoelastin-coated surfaces, all media formulations, 5 days post-seeding"}}, "data": [{"molecule": "B1", "values": [{"measurement": "differentiation capacity after expansion", "setting": "MSCs [1]", "result": "exhibited the capacity for multi-lineage differentiation"}, {"measurement": "increase in cell proliferation compared to normal media or media with IGF-1", "setting": "[2]; 1 μg/mL in solution, 7 days", "result": "18±5", "unit": "%"}, {"measurement": "increase in cell proliferation compared to normal media or media with IGF-1", "setting": "[2]; 20 μg/mL in solution, 7 days", "result": "69±7", "unit": "%"}, {"measurement": "improved MSC proliferation over substrate-bound tropoelastin", "setting": "[2]; 20 μg/mL in solution, 7 days post-seeding", "result": "80±8", "unit": "%"}, {"measurement": "increase in MSC proliferation by substrate-bound tropoelastin over TCP", "setting": "[2]; 7% FBS media with IGF-1, 7 days", "result": "49±1", "unit": "%"}, {"measurement": "increase in MSC proliferation by substrate-bound tropoelastin over TCP", "setting": "[2]; 7% FBS media with bFGF, 7 days", "result": "40±3", "unit": "%"}, {"measurement": "increase in MSC proliferation by substrate-bound tropoelastin over TCP", "setting": "[2]; 7% FBS media with both growth factors, 7 days", "result": "29±3", "unit": "%"}, {"measurement": "increase in MSC proliferation by substrate-bound tropoelastin over TCP", "setting": "[2]; 7% FBS, unsupplemented media, 7 days", "result": "97±19", "unit": "%"}, {"measurement": "tropoelastin-mediated proliferative increase over bare TCP", "setting": "[2]; 10% FBS media with IGF-1, 7 days", "result": "41±1", "unit": "%"}, {"measurement": "tropoelastin-mediated proliferative increase over bare TCP", "setting": "[2]; 10% FBS media with IGF-1 and bFGF, 7 days", "result": "16±3", "unit": "%"}, {"measurement": "tropoelastin-mediated proliferative increase over bare TCP", "setting": "[2]; 10% FBS media with bFGF, 7 days", "result": "16±2", "unit": "%"}, {"measurement": "serum reduction at which cell expansion remained unaffected", "setting": "[2]; 7 days post-seeding, substrate-bound tropoelastin without growth factors, or IGF-1 and bFGF in media on TCP", "result": "≤ 40", "unit": "%"}, {"measurement": "serum reduction at which MSC numbers significantly decreased", "setting": "[2]; coated surface, until 3 days post-seeding", "result": 80, "unit": "%"}, {"measurement": "increase in cell numbers on tropoelastin-coated TCP over bare TCP", "setting": "[2]; normal 10% (v/v) serum media, 7 days", "result": "39±3", "unit": "%"}, {"measurement": "MSC propagation relative to bFGF", "setting": "[2]; soluble 5 μg/mL, until 7 days post-seeding", "result": "comparable to bFGF"}, {"measurement": "MSC expansion relative to media containing both IGF-1 and bFGF", "setting": "[2]; soluble 20 μg/mL, full serum media", "result": "equivalent to that in media containing both growth factors"}, {"measurement": "more potent than bFGF for MSC propagation", "setting": "[2]; soluble 20 μg/mL, until 7 days post-seeding", "result": "18±5", "unit": "%"}, {"measurement": "MSC expansion surpassing bFGF", "setting": "[2]; soluble, at and above 1 μg/mL, 3 days post-seeding", "result": "up to 74±2%"}, {"measurement": "improved MSC proliferation compared to IGF-1 and bFGF in tandem", "setting": "[2]; substrate-bound tropoelastin, 40% decrease in serum (6% FBS), 7 days", "result": "23±3", "unit": "%"}, {"measurement": "serum reduction tolerated without deleterious effects to proliferation", "setting": "[2]; surface-bound tropoelastin with growth factors in media, after 5 days post-seeding", "result": "≤ 20", "unit": "%"}, {"measurement": "serum reduction allowed", "setting": "[2]; surface-bound tropoelastin with growth factors in media, until 5 days post-seeding", "result": 40, "unit": "%"}, {"measurement": "proliferation compared to cells on TCP in media with bFGF", "setting": "[2]; [5]", "result": "similarly"}, {"measurement": "proliferation more than cells on TCP in media with IGF-1", "setting": "[2]; [5]", "result": "36±3", "unit": "%"}, {"measurement": "decreased expansion compared to cells on TCP in media containing both IGF-1 and bFGF", "setting": "[2]; tropoelastin substrate, normal media, no additional factors", "result": "14±2", "unit": "%"}, {"measurement": "abundance compared to cells on TCP in media with both growth factors", "setting": "[2]; [6]", "result": "equivalent in abundance"}, {"measurement": "greater expansion relative to cells on TCP in media with IGF-1", "setting": "[2]; [6]", "result": "59±15", "unit": "%"}, {"measurement": "greater expansion relative to cells on TCP in media with bFGF", "setting": "[2]; [6]", "result": "37±13", "unit": "%"}, {"measurement": "MSC marker expression profile", "setting": "MSCs [3]; 20 μg/mL soluble in media", "result": "displayed characteristic CD90+, CD105+, CD73+ and lineage negative expression profiles"}, {"measurement": "MSC phenotype (marker expression)", "setting": "MSCs [3]; substrate-bound, replacing one or both growth factors, full or reduced serum media", "result": "fully retained"}, {"measurement": "cells expressing positive MSC markers CD90, CD105 and CD73", "setting": "MSCs [3]; [7]", "result": "more than 95%"}, {"measurement": "cells lacking hematopoietic markers CD34, CD45, CD11b, CD79a and HLA-DR", "setting": "MSCs [3]; [7]", "result": "more than 98%"}, {"measurement": "intracellular lipid formation", "setting": "MSCs [4]; 20 μg/ml TE during both expansion and induction stages", "result": "increase in intracellular lipid formation"}, {"measurement": "intracellular lipid formation compared to culture lacking TE", "setting": "MSCs [4]; induced in the presence of TE", "result": "increase in intracellular lipid formation"}, {"measurement": "increased adipogenesis", "setting": "MSCs [4]; tropoelastin addition during MSC expansion", "result": 33, "unit": "%"}, {"measurement": "increased adipogenesis", "setting": "MSCs [4]; tropoelastin addition during differentiation", "result": 19, "unit": "%"}, {"measurement": "promoted adipogenesis", "setting": "MSCs [4]; tropoelastin during both expansion and differentiation stages", "result": "69-85%"}]}]}
